T1: hCXCR2–Renilla luciferase (human), P25025
T1 chain: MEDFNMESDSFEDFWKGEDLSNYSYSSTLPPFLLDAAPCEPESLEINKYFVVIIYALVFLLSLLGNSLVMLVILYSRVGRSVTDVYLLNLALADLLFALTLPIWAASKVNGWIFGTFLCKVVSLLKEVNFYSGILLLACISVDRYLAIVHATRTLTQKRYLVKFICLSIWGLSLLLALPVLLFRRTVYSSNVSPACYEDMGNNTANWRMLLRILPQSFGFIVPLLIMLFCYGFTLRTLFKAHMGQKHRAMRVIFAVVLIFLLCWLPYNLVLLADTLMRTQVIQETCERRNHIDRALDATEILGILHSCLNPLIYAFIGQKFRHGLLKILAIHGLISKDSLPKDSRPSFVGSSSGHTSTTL

T2: hDOP–Renilla luciferase (human), P41143
T2 chain: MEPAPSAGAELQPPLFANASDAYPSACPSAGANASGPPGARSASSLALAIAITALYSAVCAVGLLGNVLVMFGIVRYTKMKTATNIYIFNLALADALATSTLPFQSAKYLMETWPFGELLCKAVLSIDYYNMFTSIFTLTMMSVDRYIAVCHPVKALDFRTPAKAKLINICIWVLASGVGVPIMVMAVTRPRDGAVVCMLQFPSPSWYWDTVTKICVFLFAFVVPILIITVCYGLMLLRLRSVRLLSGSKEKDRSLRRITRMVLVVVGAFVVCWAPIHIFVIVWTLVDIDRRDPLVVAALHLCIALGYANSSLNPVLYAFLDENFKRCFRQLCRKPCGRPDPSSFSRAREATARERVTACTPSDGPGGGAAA


Experiments:
[1] = molecular target: T1, hCXCR2–Renilla luciferase (human), …; assay: FRET or BRET; settings: remark: other sources report otherwise
[2] = molecular target: T2, hDOP–Renilla luciferase (human), P41143; assay: FRET or BRET; settings: remark: other sources report otherwise

BRET50 ([acceptor] to [donor] ratio) [1]	BRET50 ([acceptor] to [donor] ratio) [2]	Binder
1.6		hCXCR2–GFP^2, P25025 1-360 (receptor) MEDFNMESDSFEDFWKGEDLSNYSYSSTLPPFLLDAAPCEPESLEINKYFVVIIYALVFLLSLLGNSLVMLVILYSRVGRSVTDVYLLNLALADLLFALTLPIWAASKVNGWIFGTFLCKVVSLLKEVNFYSGILLLACISVDRYLAIVHATRTLTQKRYLVKFICLSIWGLSLLLALPVLLFRRTVYSSNVSPACYEDMGNNTANWRMLLRILPQSFGFIVPLLIMLFCYGFTLRTLFKAHMGQKHRAMRVIFAVVLIFLLCWLPYNLVLLADTLMRTQVIQETCERRNHIDRALDATEILGILHSCLNPLIYAFIGQKFRHGLLKILAIHGLISKDSLPKDSRPSFVGSSSGHTSTTL
	2.2	hDOP–GFP^2, P41143 1-372 (receptor) MEPAPSAGAELQPPLFANASDAYPSACPSAGANASGPPGARSASSLALAIAITALYSAVCAVGLLGNVLVMFGIVRYTKMKTATNIYIFNLALADALATSTLPFQSAKYLMETWPFGELLCKAVLSIDYYNMFTSIFTLTMMSVDRYIAVCHPVKALDFRTPAKAKLINICIWVLASGVGVPIMVMAVTRPRDGAVVCMLQFPSPSWYWDTVTKICVFLFAFVVPILIITVCYGLMLLRLRSVRLLSGSKEKDRSLRRITRMVLVVVGAFVVCWAPIHIFVIVWTLVDIDRRDPLVVAALHLCIALGYANSSLNPVLYAFLDENFKRCFRQLCRKPCGRPDPSSFSRAREATARERVTACTPSDGPGGGAAA
